Test: yeast display, Sf9 membrane polyspecificity reagent, FACS + sequencing; frameworks hold sequencing errors
In short: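 Galactose induction of a Saccharomyces cerevisiae BJ5465 synthetic nanobody display library ran 36–48 hours. The cells were then stained for 1 hour at 4 °C with 10% biotinylated, detergent-solubilized Sf9 membrane reagent, pulled down on streptavidin microbeads and FACS-sorted into low and high (top ~1%) gates on expression and reagent-binding fluorescence. Labels for polyreactivity follow the gate of origin.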

| Sequence | polyreactivity (PSR sort gate) |
| --- | --- |
| QVQLVESGGGLVQAGGSLRLSCAASGFIFTYYALGWYRQAPGKERELVAAITIGGTTNYADSVKGRFTISRDNAKNTVYLQMNSLKPEDTAVYYCAAYFTIEDWYYNEAVRYYYWGQGTKVTVSS | high polyreactivity |
| QVQLVESGGGLVQAGGSLRLSCAASGFTFVINDMGWYRQAPGKERELVADITSGGDTYYADSVKGRFTISRDNAKNTVYLQLNSLKPEDTAVYYCAADIYPDWIYLLYGYWGQGTQVTVSS | low polyreactivity |
| QVQLVESGGGLVQAGGSLRLSCAASGRTVYSYAMGWYRQAPGKERELVAAISYTGASTFYADSVKGRFTISRDNAKNTVYLQMNSLKPEDTAVYYCAAESQPSYGETDEYWGQGTQVTVSS | high polyreactivity |
| QVQLVESGGGLVQAGGSLRLSCAASGGIFVTYAMVWYRQAPGKERELVAAITSGGTTYYADSVKGRFTISRDNAKNTVYIQMNSLTPEDTAVYYCAARYYPGYYYPPLDYWGQGSQVTVSS | low polyreactivity |
| QVQLVESGGGLVQAGGSLRLSCAASGSILTHYAMGRYRPAPGKERELVAAITWRGGSTYYADSVKGRFTISRDNAKNTVYLQMNSLKTEDTAVYYCAADLSYPDWSRYQWDMDYWGQGTQLTVSS | low polyreactivity |
| QVQLVESGGGLVQAGGSLRLSCAASGIIFIHNAMGGYRQAPGTERELVAAINWSGGRTSYADSVKGRFTISRDNAKNTVYLQMTRLKPEDTAVYYCAADGRRYSGEYYYWGQGTQVTVSS | high polyreactivity |
| QVQLVESGGGLVQAGGSLRLSCAASGRTSWPYAMGWYRQAPGKERELVAGISRNGGRTYYADSVKGRFTISRDNAKNTVYLQMNSLKPEDTAVYYCNAYPPSRHDYWGQGTQVTVSS | high polyreactivity |
| QVQLVESGGGLVQAGGSLRLSCAASGSIFEQYAMGWYRKAPGKERELVAAISSGGSTNYADSVKGRFTISRDNAKNTVYLQMNSLKPEDTAVYYCAAAYYTVGWLYYDYWYPFAYYYWGQGTQVTVSS | low polyreactivity |
| QVQLVESGGGLVQAGGSLRLSCAASGSTFYTYTMGWYRQAPGKERELVAAITWSGGSTYYADSVKGRFTISRDNANNTVYLQMNSLKPEDTAVYYCNADQDYKGARPSGMDYCGQGTQVTVSS | low polyreactivity |
| QVQLVESGGGLVQAGGSLRLSCAASGRTFSRYVMGWYRQAPGKERELVAAISRTGGRTYYADSVKGRFTISRDNAKNTVYLQMNSLKPEDTAVYYCNAGTVLISTYDYWGQGTQVSVSS | high polyreactivity |
| QVQLVESGGGLVQAGGSLRLCCAASGSTFYYYAMGWYRQAPGKEREFVASISSRGTSTYYADSVKGRFTISRDNAKNTVYLQLNSLKPEDTAVYYCAARGWGPTRAYDYSGQGTQVTVSS | high polyreactivity |
| QVQLVESGGGLVQAGGSLRLSCAASGLTFRANAMGWYRQAPGKERELVAAISWRGGGTYYADSVKGRFTISRDNAKNTVYLQMNSLKPEDTAVYYCDAKTQNAYYWGQGTQVTVSS | low polyreactivity |
| QVQLVESGGGLVQAGGSLRLSCAASGRIFEHYAMGWYRQAPGKERELVASISSGDRTNYADSVKGRFTISRDNAKNTVYLQMNSLKPEDTAVYYCNALQLYGKGKRVGFGYWGQGTQVTVSS | low polyreactivity |
| QVQLVESGGCLVQAGGSIRLSCAASGSIFKSNAMGWYRQAPGKERELVAAISNGGITNYADSVKVRFTISRDNAKNTDYLQMNSLKPEDTAVYYCNARNNYWWYCPGYDYWGQGTQLTVSS | low polyreactivity |
| QVQLVESGGGLVQAGGSLRLSCAASGSTFDPNVMGWYRQAPGKERELVAAISSIGGSTYYADSVKGRFTISRDNAKNTVYLQMNSLNPQDTAVYYCAAGYPRFGYDYWGQGTQVTVSS | high polyreactivity |
| QVQLVESGGGLVQAGGSLRLSCAASGSTFTRNAMGWYRPAPGKERELVAAITSSGGYTYYADSVKGRFTISRDNAKNTVYLQMNSLKPEDTAVYYCAAYPHRPRDRELDHWGQGTQVTVSS | low polyreactivity |
| QVQLVQSGGGLVQAGGSLRLTCAASGRTFVVYAMGWYRQAPGKERQLVASISSIGEITNYADSVKGRFTISRDYAKNTVYLQMNSLKQEDTAVYYCTAPICGSYNTRRAAEYDYWGQGTQVTVSS | low polyreactivity |
| QVQLVESGGVLVQAGGSLRLSCAASGRTLFHYAMGWDRQAPGKERELVAAIRNSDGSTYYADSVKGRFTISRDNAKNTVYLQMNSLKPEDTAVYYCAAKYKYRTNNYWGQGTQVTVSS | high polyreactivity |
| QVQLVESGGGLVQAGGSLRLSCAASGSIFNAYAMGWYRQAPGKERELVAAISKRTSYADSVKGRFTISRDNAKNTVYLQMNSLKPEDTAVYYCAKEVDEPDGYEYDYWGQGTQVTVSS | low polyreactivity |
| QVQLVESGGGLVQAGGSLRLSCAASGNTFFLYAMGWYRQAPGKERELVAVISASGGSTYFADSVKGRFTISRDNAKNTVYLQMNSVKPEDTAVYYCAKTPRTYYRYRNAFHYYYWGQGTQVTVSS | high polyreactivity |
| QVQLVESGGGLVQAGGSLRLSCAASGNIFSSNAMGWYRQAPGKERELVAAISASGGNTYYADSVKGRFTISRDNAKNTVYLQINSLKPEDTAVYYCNAYRGGYLRRGYYYWGQGSQVTVSS | high polyreactivity |
| QEQLQESGGGQVQAGGSLLLSCAASGNIIRYYYMGWSRQAPGKERELVAAITYGTSTNYADSVKGRFTISRDNAKNTVYLQMNSLKPEDTAVYYCAVDVNYGDPLDNWGQGTQVTVSS | high polyreactivity |

| Sequence | polyreactivity (PSR sort gate) |
| --- | --- |
| QVQLVESGGGLVQAGGSLRLSCAASGSTLVKYAMGWYRQAPGKERELVAAISWSGGRTYYADSVKGRFTISRDNAKNNVYLQMNSLKPEDTAVYYCAARRKAVRYDYWGQGTQVTVSS | high polyreactivity |
| QVQLVESGGGLVQAGVSLRLSCAASGSTLVLNAMGWYRQAPGKERELDAAISRGGGSTSYADSVKGRFTISRDNAKNTVYLQMNSLKPEDTAVYYCNAYTYYHANHVQGFGYWGQGTQVTVSS | low polyreactivity |
| QVQLVESGGGLVQAGGTLRLSCAASGSTYEVYAMGWYRQAPGTERELVAVITGNGGSTNYADSVKGRFTISRDNAKNTVYLQMNSLKPEDTAVYYCAADFYTFVRSDYWGQGTQVTVSS | low polyreactivity |
| QVHLVESGGGLVQAGVSLRLSCAASGSTFDYYAMGWYIQAPGTERELVAGITGGGSTYYADSVKGRFTISRDNAKNTVYLQMNSLKPEDTAVYYCNAGPAQRYDYWGQGTQVTVSS | low polyreactivity |
| QVQLVESGGGLVQAGGSLRLSCDASGSTFRSYAMGWYRQAHGKERELVASISGRGGSTYYADSVKGRFTISRDNAKNTVYLQMNSLKPEDTAVYYCAKRYRVSYYPYADPYGYWGQGTQVTVSS | low polyreactivity |
| QVHLVESGGGLVQAGGSLRLSCAASGRIFYANARGWYRQAPGKERELVAAISQSGGSTFYADSVKGRFTISRDYAKNTVYLQMNSLKPEDTAVYYCATDYYGPVYDLDYDYWGQGTQVTVSS | low polyreactivity |
| HVQVVESGGGLVQAGGSLRLSCAASGSTFPANAMGWYRQAPGKERELVAAISSSGGRTYYADSVKGRFTISRDNAQKTVYLQMNSLKPEDTAVYYCAAYGGGGYKYDYWGQGTQVSVSS | low polyreactivity |
| QVQHVESGGGLVQAGGSLRLSSAASGRIFKRNALGWYRQAPGKEREMVATISGSGGSTYYADSVKGRFTISRDNAKNTVYLQMNSLNPEDTAVYYCAAGYKSYWRLSSPKMDYWGQGTQVTVSS | high polyreactivity |
| QVQLVESGGGLVQAGGSLRLSCAASGSTFQIYTMGWYRQAPGKERELVAAITNGGGSTYYADSVKGRFTISRDNAKNTVYLQMNSLKPEDTAVYYCAAEQRYPLIILYDYWGQGTQVTVSS | low polyreactivity |
| QVQLVESGGGLVQAGGSLRLSCAASGSTFGRYAMGWYREAPGKERELVAGITYGSTYYADSVKGRVTISRDNAKNTVYLPMNSLKPEDTAVYACAADLSYTSVHGYRSETLMDYWGQGTQVTVSS | low polyreactivity |
| QVQLVESGGGLVQAGGSIRLSCAASGRTFHYNVMGGYRQAPGNERELVAAITNTGGSTYYADSVKGRFTISRDNAKNTVYLQMYSLKPVDTAVYYCAAVIWGRRYGAYPYEYWGQGTQVTVSS | low polyreactivity |
| QVQLVESGGGLVQAGGSLRLSCAASGIIFHFNDMGWYRQAPGKERELVAAITSGGSTNYADSVKGRFTISRDNAKNTVYLQMNSLKPEDTAVYYCAARRGLRLFAYRHGYWGQGTQVTVSS | low polyreactivity |
| QVQLVESGGGLVQAGGSLRLSCAASGSTFYRNTMGWYRQAPGKERELVAAISRTGASTHYADSVKGRFTISRDNAKNTVYLQMNSLKPEDTAVYYCNAVPAIGKYYGGGYWGQGTQVTVSS | high polyreactivity |
| QVQLVESGGGLVQAGGSLRLSCAASGRTFRPYDMGWYRQAPGKERELVATITTNGGSTYYADSVKGRFTISRDNAKNTVYLQMNSLKPEDTAVYYCATDNWWQTYHYQGGYYWGQGTQVTVSS | low polyreactivity |
| QVQLVESGGGLVQAGGSLRLSCAASGSTFRDNAMGWYRQAPGKEWELVAAITVIDGTTYYADSVKGRFTLSRDNAKNTVYLQMNSLKPEDTAVYYCAADTIWYEYYYWGQGTQVTVSS | low polyreactivity |
| QVQLVESGGGLVQAGGSLRLSCAASGNTFAYNTMGWYRQAPGKERELVAAIRTRGGSTYYADSVKGRFTISRDNAKNTVYLQMNSLKPEDTAVYYCAADYRYHGYWSYDYWGQGTQVTVSS | low polyreactivity |
| QVQLVESGGGLVQAGGSLRLSCAASGRSFAWYTMGWYRQAPGKERELVAAISGSGGSTYYADSVKGRFTISRDNAKNTVYLQMNSLKPEDSALYYGARRVDSYYGHTRFYYWGQGTQVTVSS | high polyreactivity |
| QVQLVESGGGLVQAGGSLRLSCAASGFIFLGNAMGWYRQAPGKERELVASISRGGSTNYADSVKGRFTISRDNAKNTVYLQMTSLKPEDTAVYYCAADLSDKFGYWGQGTQVTVSS | low polyreactivity |
| QVQLVESGGGLVQAGGSLRLSCAASGFIFVVYTMGWYRQAPGKERELVAAITSGGSTYYADSVKGRFTISRDNAKNTVYLQMNSLKPEDTAVYYCYALASRYPAYYYWGQGTQVTVSS | low polyreactivity |
| QVQLVESGGGLVQAGGSLLLICSASGSTFVRHAMGWYRHAPGKESELDAAISTRGGSTSYADSVKGRFTISRDNSKNSVYLQMKSLKQEDTAVYYCAKVLAYSQGIRHGYWGQGTQVTVSS | low polyreactivity |
| KFQLVESGGGLVQAGGRLRLSCAASGSTFWDYAMGWYRQATGKERQLVAVITSSGGGTYYADSVKGRFTISRDNSKNTVYLLMNSLKPEDTAVYYCAKKRPYSNGGYYWGQGSQVTVSS | high polyreactivity |

Reference: the nanobody polyreactivity screen of Harvey et al. (2022)
